According to patent publication US20230041071A1 (NATIONAL INSTITUTE OF BIOLOGICAL SCIENCES BEIJING, published 2023):
Positions count from the first letter of the chain named. Where no end group is shown, it is not given here.

Experiments:
mAREG-EGFd-DLLA-mFc = target: T1, mAREG-EGFd-DLLA-mFc (mouse, UniProt P31955 135-177, limits assumed); test: competition ELISA; antibody titrated against 50 nM mAREG-DLLA on captured mEGFR-ECD
T1 construct: Expressed in 293F cells; also called mAREG-DLLA
T1 chain: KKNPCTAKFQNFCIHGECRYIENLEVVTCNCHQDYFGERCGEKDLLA
Protocol: Briefly, streptavidin (Sigma, 5 μg/mL) were coated in U-bottom 96-well plates, 100 nM biotinylated hEGFR-ECD or mEGFR-ECD in 100 μL per well were then captured onto the plates. Different antibodies at serial diluted concentrations were mixed with 5 nM hAREG-DLLA or 50 nM mAREG-DLLA protein and added to the ELISA plate. The binding of hAREG-DLLA to hEGFR-ECD or the binding of mAREG-DLLA to mEGFR-ECD was detected by HRP-conjugated mouse anti-mouse IgG Fc antibody (Thermo Fisher).
To facilitate the competition ELISA assay, we used the hAREG-EGFd-DLLA-mFc (hAREG-DLLA) or mAREG-EGFd-DLLA-mFc (mAREG-DLLA) as the ligands for binding to EGFR in the assay.

[1] = target: T2, mAREG: mouse AREG comprising residues 94-177 of the mouse pro-AREG with an N-terminal AVI tag (mouse, biotinylated using BirA enzyme (Avi tag)); test: ELISA, biotinylated mAREG captured on streptavidin-coated plate, bound IgG detected with HRP anti-Fc antibody
T2 construct: Expressed in E. coli, cleaved by HRV 3C protease, biotinylated; also called biotinylated mAREG
T2 chain: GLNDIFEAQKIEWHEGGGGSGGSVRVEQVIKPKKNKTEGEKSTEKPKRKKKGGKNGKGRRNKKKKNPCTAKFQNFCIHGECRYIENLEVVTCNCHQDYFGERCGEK
Protocol: (§1) Streptavidin (Sigma, […]) in phosphate buffered saline (PBS) was coated in U-bottom 96-well plate (Nunc, MaxiSorp™), 100 μL per well, at 4° C. overnight or 37° C. for 1 hour.
(§2) About […] of AREG protein or peptide at 100 μL per well were then captured onto the plates by incubation at 30° C. for 1 hour. For phage-scFv based ELISA, serial diluted phage-scFvs in PBS containing 2% nonfat milk were added to each well at 100 μL per well. Specific bound phage-scFvs were detected by adding HRP-conjugated mouse anti-M13 antibody (GE Healthcare) and incubated for 30 mins at 30° C. In between each incubation step, the ELISA plate was washed for 6 times with PBST solution (0.05% Tween20 containing PBS) at 300 µL per well. Followed by HRP-conjugated antibody incubation, the ELISA signal was developed by incubating with TMB substrate (Sigma) for 5-10 mins at 30° C. and then the reaction was stopped with 2M H₂SO₄ at 50 µL per well. The absorbance at 450 nm with the correction wavelength set at 630 nm was read by a microplate reader (Bio-Rad). For IgG based ELISA, the method was basically the same as described above for phage-scFvs except the bound antibodies were detected by HRP-conjugated mouse anti-Fc secondary antibody (Thermo Fisher Scientific).

[2] = target: T3, hAREG: human AREG comprising residues 101-184 of the human pro-AREG with an N-terminal AVI tag (human, biotinylated using BirA enzyme (Avi tag)); test: ELISA, biotinylated hAREG captured on streptavidin-coated plate, bound IgG detected with HRP anti-Fc antibody
T3 construct: Expressed in E. coli with His6-TRX-3C site-Avi tags and cleaved by HRV 3C protease; also called biotinylated hAREG
T3 chain: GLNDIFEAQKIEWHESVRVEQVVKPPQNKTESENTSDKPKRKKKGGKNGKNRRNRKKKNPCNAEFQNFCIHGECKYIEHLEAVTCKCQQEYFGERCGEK
Protocol: as §1, §2

C18 peptide [3] = target: T4, C18 peptide (human, cysteine pairing not given here; also: biotinylated, position not given here); test: ELISA, biotinylated C18 peptide captured on streptavidin-coated plate, bound IgG detected with HRP anti-Fc antibody
T4 construct: Synthetic (Scilight-peptide); also called hAREG-C18; C-terminal peptide
T4 peptide: GSSGKCQQEYFGERCGEK
Protocol: as §1, §2

[4] = target: T3, hAREG: human AREG comprising residues …; test: hybridoma screening by ELISA on biotinylated hAREG and SPR
Protocol: The supernatant of hybridoma clones were examined for binding activity to biotinylated hAREG by ELISA. Clones with high binding activity were selected and expanded for subsequent subcloning, and the supernatant of the subclones were analyzed by ELISA and SPR. The SPR analysis was performed using Biacore T200 instrument (GE Life Sciences). Diluted supernatant was captured on anti-mFc CM5 biosensor chip, then 200 nM of hAREG EGF domain-hFc flowed in mobile phase. Subclones with high affinity was expanded for RNA extraction. Cells were resuspended in TRIzol (Life Technologies), and total RNA was extracted following the instruction manual. The cDNA of subclones was synthesized using PrimeScript™ RT Master Mix (TaKaRa). The VH and VL genes of each antibody were amplified using a set of PCR primers specific to mouse antibody variable genes. PCR products were cloned into a PCR sequencing vector for sequencing.

mAREG-EGFd-mFc = target: T5, mAREG-EGFd-mFc (mouse, UniProt P31955 135-177); test: SPR, Biacore T200; mAb captured on anti-human Fc chip, antigen in solution
T5 construct: also called EGF domain of mAREG (aa135-177) fused with mFc tag; not shown: mFc tag (Fc fragment of mouse IgG2a as for hAREG-EGFd-mFc)
T5 chain: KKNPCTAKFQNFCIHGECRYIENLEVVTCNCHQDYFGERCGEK
Protocol: (§3) To evaluate affinities of different mouse hybridoma mAbs or their humanized and engineered variants, SPR measurement was performed using Biacore T200 instrument. mAbs were captured on anti-human Fc CM5 biosensor chip surface, hAREG-EGFd-mFc, mAREG-EGFd-mFc or hAREG-98aa (purchased from PeproTech, cat #100-55B) in serial dilutions were injected over antibody-bound surface, followed by a dissociation phase. Association rates (Ka) and dissociation rates (Kd) were calculated using the one-to-one Langmuir binding model (BIA Evaluation Software, GE Life Sciences). The equilibrium dissociation constant (KD) was calculated as the ratio kd/ka.

hAREG-98aa = target: T6, hAREG-98aa (human, UniProt P15514 101-198); test: as above
T6 construct: Bought protein
T6 sequence (looked up): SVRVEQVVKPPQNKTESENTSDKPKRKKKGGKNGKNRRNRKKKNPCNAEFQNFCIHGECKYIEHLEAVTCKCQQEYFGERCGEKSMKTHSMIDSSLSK
Protocol: as §3

hAREG-EGFd-mFc = target: T7, hAREG-EGFd-mFc (human; mouse, UniProt P15514 142-184); test: as above
T7 construct: Expressed in 293F cells; not shown: Fc fragment of mouse IgG2a
T7 chain: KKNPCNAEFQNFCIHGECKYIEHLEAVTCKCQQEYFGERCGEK
Protocol: as §3

hAREG-H164N variant = target: T8, hAREG-H164N variant (human, UniProt P15514 142-184); test: SPR (Biacore T200)
T8 construct: also called H164N variant of hAREG-EGFd
T8 chain: T7 chain with H23N

hAREG-E149K variant = target: T9, hAREG-E149K variant (human, UniProt P15514 142-184); test: SPR (Biacore T200)
T9 construct: also called E149K variant of hAREG-EGFd
T9 chain: T7 chain with E8K

[5] = target: T10, biotinylated mAREG-EGFd (expressed in E. coli) (mouse, UniProt P31955 135-177, limits assumed, biotinylated); test: phage antibody library selection and ELISA screening
T10 construct: domain: EGFd; E. coli-expressed biotinylated form used for the library selection; not the mFc fusion m33
T10 chain (looked up): T5 chain
Protocol: (§4) Phage particles expressing scFv on their surface (phage-ScFv) were prepared from the library and used for selection of scFvs against the target antigens including the biotinylated AREG proteins and peptides. The antigens were captured on streptavidin-conjugated magnetic M-280 Dynabeads® (Life Technologies) and then incubated with 5×10¹² phage particles prepared from the library, respectively. For each soluble AREG protein or peptide (antigen, Ab), two rounds of selection were performed. For obtaining cross-reactive human mAbs recognizing both hAREG and mAREG, the hAREG and mAREG were used respectively in the 1st and 2nd rounds of selection. […] Some of the phage-Abs were subsequently converted into human IgG1 (hIgG1) or mouse IgG2a format and analyzed for binding to both hAREG and mAREG using enzyme-linked immunosorbent assay (ELISA) or Biacore.
(§5) About […] of AREG protein or peptide at 100 μL per well were then captured onto the plates by incubation at 30° C. for 1 hour. […] Specific bound phage-scFvs were detected by adding HRP-conjugated mouse anti-M13 antibody (GE Healthcare) and incubated for 30 mins at 30° C. […] The absorbance at 450 nm with the correction wavelength set at 630 nm was read by a microplate reader (Bio-Rad). […]

[6] = target: T3, hAREG: human AREG comprising residues …; test: ELISA screening after phage library selection
[7] = target: T2, mAREG: mouse AREG comprising residues …; test: ELISA screening after phage library selection
C18 peptide [8] = target: T4, C18 peptide; test: phage antibody library selection on the C18 peptide and ELISA screening
Protocol: as §4, §5

B1: P7 (antibody, V domains shown)
VH: EVQLVQSGGGVVQPGRSLRLSCAASGFIFSSHAMSWVRQAPGKGLEWVSAISGSGGSTYYADSVKGRFTISRDNSKNTLYLQMNSLRAEDTAVYYCAKVDTKFDPWGQGTLVTVSS
VL: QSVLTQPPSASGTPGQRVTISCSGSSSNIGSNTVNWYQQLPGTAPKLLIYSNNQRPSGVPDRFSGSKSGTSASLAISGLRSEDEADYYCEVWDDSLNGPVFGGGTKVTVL
notes: Human mAb from a phage scFv library, selected on the C18 peptide; Human IgG1 or mouse IgG2a format
**Q.** What does the source list for B1?
**A.** binding result (mAREG-EGFd-DLLA-mFc): binds; EC50 (read off the curve) [1]: ~0.9 nM; EC50 (read off the curve) [2]: ~0.08 nM; EC50 (read off the curve) (C18 peptide [3]): ~0.06 nM

B2: 9C12 (antibody, V domains shown)
VH: EVKLVESGGGLVKPGGSLKLSCAASGFTFSSYPMSWVRQTPEKRLEWVATISTGGTYTYYPDSVKGRFTISRDNAKNTLYLQMSSLRSEDTAMYYCARQGPIYYGNYYYAMDYWGQGTSVTVSS
VL: DIVMTQPPLSLPVSLGDQASISCRSSQSLVHSDGNTYLHWYLQRPGQSPKLLIYKVSNRFSGVPDRFSGSGSGTDFTLKISRVEAEDLGVYFCSQSTHVPYTFGGGTKLEIK
notes: Mouse hybridoma mAb; made recombinantly as mIgG1, mIgG2a or chimeric human IgG1; also called m9C12
**Q.** Does B2 bind [4]?
**A.** binds

B3: hu9C12v4 (antibody, V domains shown)
VH: EVQLVESGGGLVKPGGSLRLSCAASGFTFSSYPMSWVRQAPEKGLEWVSTISTGGRYTYYPDSVKGRFTISRDNAKNSLYLQMNSLRAEDTAVYYCARQGPIYYGNYYYAMDYWGQGTTVTVSS
VL: DIVMTQSPLSLPVTLGDPASISCRSSQSLVDGEDGTYLNWFQQRPGQSPKLLIYKVSERFDGVPDRFSGSGSGTDFTLKISRVEAEDVGVYYCSQSTHVPYTFGGGTKVEIK
notes: Humanized 9C12 variant
**Q.** Which results are given for B3?
**A.** binding result (mAREG-EGFd-DLLA-mFc): binds; Kd (mAREG-EGFd-mFc): 9.01 nM; Kd (hAREG-98aa): 0.462 nM; koff (hAREG-98aa): 0.00372 s⁻¹; kon (hAREG-98aa): 8.04e+06 M⁻¹ s⁻¹; Kd (hAREG-EGFd-mFc): 1.04 nM; koff (hAREG-EGFd-mFc): 0.00077 s⁻¹; kon (hAREG-EGFd-mFc): 745000 M⁻¹ s⁻¹; binding result (hAREG-H164N variant): no binding; binding result (hAREG-E149K variant): binds

B4: 23H8 (antibody, V domains shown)
VH: EVQLQESGGGLVKPGGSLKLSCAASGFTFNSYAMSWVRQTPEKRLEWVATISTGGSHTYYPDSVKGRFTISRDNAKNTLYLQMSSLRSEDTAMYYCARHGYLLYDGYYEWYFDVWGAGTTVTVSS
VL: DIVLTQSPASLAVSLGQRATISCKASQSVDYDGHSFLNWYQQKPGQPPKLLIYAASNLESGLPARFSGSGSGTDFTLNIHPVEEEDAATYYCQQSTEDPPYTFGGGTKLEIK
notes: Mouse hybridoma mAb; made recombinantly as mIgG1, mIgG2a or chimeric human IgG1; also called m23H8
**Q.** Does B4 bind [4]?
**A.** binds

B5: E1L2 (antibody, V domains shown)
VH: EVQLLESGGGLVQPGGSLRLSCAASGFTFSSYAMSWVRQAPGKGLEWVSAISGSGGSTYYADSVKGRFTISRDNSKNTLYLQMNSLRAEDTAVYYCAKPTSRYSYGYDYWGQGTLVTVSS
VL: QAGLTQPPSVSKGLRQTATLTCTGNSNNVGDQGAVWLQQHQGHPPRLLSYRNNNRPSGISERFSASRSGNTASLTITGLQPEDEADYYCSTWDSGLNSVVFGGGTQLTVL
notes: Human mAb from a phage scFv library; Phage-Abs were converted into human IgG1 or mouse IgG2a format
**Q.** Does B5 bind [5]?
**A.** binds

**Q.** Does B5 bind [6]?
**A.** binds

**Q.** Does B5 bind [7]?
**A.** binds

**Q.** Does B5 bind (C18 peptide [8])?
**A.** binds

B6: E1H3L4 (antibody, V domains shown)
VH: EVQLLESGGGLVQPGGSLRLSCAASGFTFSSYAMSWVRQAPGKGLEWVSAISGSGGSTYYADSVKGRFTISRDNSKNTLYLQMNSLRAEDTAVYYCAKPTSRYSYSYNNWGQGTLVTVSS
VL: QAVLTQPPSASGTPGQRVTISCTGNSNNVGDQGAVWYQQLPGTAPKLLIYRNNNRPSGVPDRFSGSKSGTSASLAISGLQSEDEADYYCSTWDKNNKSVVFGGGTKLTVL
notes: Human IgG1 or mouse IgG2a format
**Q.** Does B6 bind (mAREG-EGFd-DLLA-mFc)?
**A.** binds

**Q.** And the “EC50 (read off the curve)” value [1]?
**A.** ~0.5 nM

**Q.** And the “EC50 (read off the curve)” value [2]?
**A.** ~0.06 nM

**Q.** And the “EC50 (read off the curve)” value (C18 peptide [3])?
**A.** ~0.2 nM
